From patent EP4806918A1 (Nanjing Probio Biotech Co., Ltd., dated 2026)

Legend:
[1] = target: T1, human PD-L1 on a stable cell line (Probio, RD00868) (human, UniProt Q9NZQ7 19-290); test: FACS on stable cell line expressing human PD-L1
T1 construct: whole, on cells; also called cells expressing human PD-L1

[2] = target: T2, mouse PD-L1 on a stable cell line (Probio, M00567) (mouse, UniProt Q9EP73 19-290); test: FACS on stable cell line expressing mouse PD-L1
T2 construct: whole, on cells; also called cells expressing mouse PD-L1
T2 sequence (Q9EP73 19-290, one chain of several): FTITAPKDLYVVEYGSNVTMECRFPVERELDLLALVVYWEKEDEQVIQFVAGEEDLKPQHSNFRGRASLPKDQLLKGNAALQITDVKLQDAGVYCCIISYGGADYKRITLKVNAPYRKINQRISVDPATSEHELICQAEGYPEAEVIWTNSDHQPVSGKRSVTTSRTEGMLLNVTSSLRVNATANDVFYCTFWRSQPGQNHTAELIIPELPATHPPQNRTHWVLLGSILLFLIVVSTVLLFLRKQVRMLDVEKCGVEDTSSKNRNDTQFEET

[3] = target: T3, cynomolgus monkey PD-L1 on a stable cell line (Probio, M00573) (cynomolgus monkey, UniProt G7PSE7 19-290); test: FACS on stable cell line expressing cynomolgus monkey PD-L1
T3 construct: whole, on cells; also called cells expressing monkey PD-L1
T3 sequence (G7PSE7 entry or part of it, one chain of several): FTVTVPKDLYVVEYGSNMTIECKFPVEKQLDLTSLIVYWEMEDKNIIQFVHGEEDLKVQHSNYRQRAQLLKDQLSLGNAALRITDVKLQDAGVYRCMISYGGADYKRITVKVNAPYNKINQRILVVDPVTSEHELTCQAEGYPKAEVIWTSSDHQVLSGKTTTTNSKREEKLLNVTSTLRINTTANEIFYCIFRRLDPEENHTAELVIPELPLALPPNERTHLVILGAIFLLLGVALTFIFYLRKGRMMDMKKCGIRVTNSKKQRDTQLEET

[4] = target: T4, recombinant human PD-L1-His protein (GenScript, Z03425) (human, UniProt Q9NZQ7 19-238); test: indirect ELISA, plate coated with recombinant human PD-L1-His
T4 construct: Bought protein; also called recombinant human PD-L1 protein; human PD-L1 antigen protein; not shown: His tag
T4 sequence (Q9NZQ7 19-238 limits assumed, one chain of several): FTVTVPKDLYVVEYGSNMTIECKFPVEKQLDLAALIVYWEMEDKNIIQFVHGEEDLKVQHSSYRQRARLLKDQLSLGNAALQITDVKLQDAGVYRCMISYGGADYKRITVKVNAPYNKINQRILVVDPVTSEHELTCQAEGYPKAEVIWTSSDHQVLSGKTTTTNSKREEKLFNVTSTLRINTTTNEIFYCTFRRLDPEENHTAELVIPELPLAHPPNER

[5] = target: T4, recombinant human PD-L1-His protein …; test: SPR, Biacore 8K, antibody Fc-captured, human PD-L1-His as analyte
[6] = target: T4, recombinant human PD-L1-His protein …; test: competition ELISA on coated human PD-L1-His; row antibody titrated, competitor biotinylated Avelumab detected
[7] = target: T4, recombinant human PD-L1-His protein …; test: competition ELISA on coated human PD-L1-His; row antibody titrated, competitor biotinylated Tecentriq detected

T1 sequence (Q9NZQ7 19-290): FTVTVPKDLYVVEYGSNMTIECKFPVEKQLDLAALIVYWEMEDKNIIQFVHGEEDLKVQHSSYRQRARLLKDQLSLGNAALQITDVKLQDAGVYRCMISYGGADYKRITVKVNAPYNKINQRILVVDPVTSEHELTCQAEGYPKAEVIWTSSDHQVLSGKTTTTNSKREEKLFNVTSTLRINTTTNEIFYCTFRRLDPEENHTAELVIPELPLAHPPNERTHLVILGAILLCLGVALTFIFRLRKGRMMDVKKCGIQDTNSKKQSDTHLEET

Row | Binder | EC50 [1] [nM] | EC50 [2] [nM] | EC50 [3] [nM] | EC50 [4] [nM] | Kd [5] [nM] | koff [5] [s⁻¹] | kon [5] [M⁻¹ s⁻¹] | IC50 [6] [nM] | IC50 [7] [nM]
1 | AHP30005 fully human antibody (antibody, IgG1, V domains shown, not shown: a dimerising Fc or GST) VH: QVQLVDSGGGLVQAGGSLSVSCAVSGRTALTYAVGWFRQAPGKERDFVAGINWSGSMTNYADSVKGRFTISRDNQKNTVYLQMNSLKPEDTAVYYCAATRTAITMPPQRDGVDYWGKGTTVTVSS VL: not shown | 0.193 | 0.184 | 0.725 | 0.275 | 0.305 | 0.000425 | 1.39e+06 | 1.34 | 2.81
2 | AHP30019 fully human antibody (antibody, IgG1, V domains shown, not shown: a dimerising Fc or GST) VH: QVQLVQSGGGLVQPGGSLRLSCAGSGSSFSLAVMGWYRQAPGRQRELVGIISSAAGTNYADSVKGRFTISRDDAKNTLYLQMNSLTAEDTAVYYCWRGAVPGDPYGRWGQGTLVTVSS VL: EIVLTQSPLSLPVTLGQPASISCRSSQSLVHSDGNTYLNWFQQRPGQPPRRLIYEVSNRDSGVPDRFSGSGSGTDFTLKISRVEAEDVGVYYCMQGTHWPWTFGQGTKVEIK | 15.9 | 31.8 | 43.5 | 4.26 | 50.3 | 0.00146 | 29000 |  | 0.972

Other lines, results leading:

Row | EC50 [1] [nM] | EC50 [2] [nM] | EC50 [3] [nM] | EC50 [4] [nM] | Kd [5] [nM] | koff [5] [s⁻¹] | kon [5] [M⁻¹ s⁻¹] | IC50 [6] [nM] | IC50 [7] [nM] | Binder
3 | 0.977 | 0.746 | 1.34 | 0.173 | 5.08 | 0.000848 | 167000 | 8.97 | 96.1 | AHP31319 fully human antibody (antibody, IgG1, V domains shown, not shown: a dimerising Fc or GST) VH: EVQLVQSGGGLVQPGGSLRLSCAGSGSSFSLAVMGWYRQAPGRQRELVGIISSAAGTNYADSVKGRFTISRDDAKNTLYLQMNSLTAEDTAVYYCWRGAVPGDPYGRWGQGTTVTVSS VL: EIVMTQSPGTLSLSPGEGATLSCRASQSVSNNYLAWYQQKHGQAPRLLIYGASSRATGIPDRFSGSGSGTDFTLTINRLEPEDFALYYCQQYGNSPGTFGQGTKVDIK
4 |  |  | 0.894 |  |  |  |  |  |  | Avelumab (antibody, V domains shown) VH: EVQLLESGGGLVQPGGSLRLSCAASGFTFSSYIMMWVRQAPGKGLEWVSSIYPSGGITFYADTVKGRFTISRDNSKNTLYLQMNSLRAEDTAVYYCARIKLGTVTTVDYWGQGTLVTVSS VL: QSALTQPASVSGSPGQSITISCTGTSSDVGGYNYVSWYQQHPGKAPKLMIYDVSNRPSGVSNRFSGSKSGNTASLTISGLQAEDEADYYCSSYTSSSTRVFGTGTKVTVLG
